# The RNAGym collection of RNA variant scans (doi:10.7554/elife.80360)
# B1: Hairpin Ribozyme (parent)
# chain: GUCCUCUUUCACGUGCGCGUGAAAGAGAGAAGUGAACCAGAGAAACACACGUUGUGGUAUAUUACCUGGUA
# Variants of: B1
# Assay: self-cleavage, relative activity (ratio to wild type); higher = more cleavage; co-transcriptional
row,Variant,self-cleavage
1,GUCCUCUUUCACGUGCGCGUGAAAGAGAGAAGUGAGCCAGACAAACACACGUUGUGGUAUAUUACCUGGUA,0.347
2,GUCCUCUUUCACGUGCGCGUGAAAGAGAGAAGUGAUCCAGAGAAACACACGUUUUGGUAUAUUACCUGGUA,0.325
3,GUCCUCUUUCACGUGCGCGUGAAAGAGAGAAGUGAUUCAGAGAAACACACGUUGUGGUAUAUUACCUGGUA,0.21
4,GUCCUCUUUCACGUGCGCGUGAAAGAGAGAAGUGAUACAGAGAAACACACGUUGUGGUAUAUUACCUGGUA,0.184
5,GUCCUCUUUCACGUGCGCGUGAAAGAGAGAAGUGAGCCAGAGAAAGACACGUUGUGGUAUAUUACCUGGUA,0.178
6,GUCCUCUUUCACGUGCGCGUGAAAGAGAGAAGUGAUCCAGAGAAACACACGUUGUGGUAUAUUGCCUGGUA,0.219
7,GUCCUCUUUCACGUGCGCGUGAAAGAGAGAAGUGAUCCAGAGAAACACACGUUGUGGUAUAUUCCCUGGUA,0.0976
8,GUCCUCUUUCACGUGCGCGUGAAAGAGAGAAGUGAAACAGAGAAACACACGUUGUGGUAUAUUACCUGGUG,0.323
9,GUCCUCUUUCACGUGCGCGUGAAAGAGAGAAGUGAGCCAGAGAAACACACGUUCUGGUAUAUUACCUGGUA,0.544
10,GUCCUCUUUCACGUGCGCGUGAAAGAGAGAAGUGAGCCAGAGAAACACACGUUAUGGUAUAUUACCUGGUA,0.715
11,GUCCUCUUUCACGUGCGCGUGAAAGAGAGAAGUGAUCCAGAGAAACACAAGUUGUGGUAUAUUACCUGGUA,0.242
12,GUCCUCUUUCACGUGCGCGUGAAAGAGAGAAGUGAGCCAGAGAAACACACGUUGUGGUAUAUUACCUAGUA,0.306
13,GUCCUCUUUCACGUGCGCGUGAAAGAGAGAAGUGAGCCAGAGAAACACACGUUGUGGUAUAUUACCUUGUA,0.237
14,GUCCUCUUUCACGUGCGCGUGAAAGAGAGAAGUGAUCCAGAGAAACACACGUUGUGGUAUUUUACCUGGUA,0.213
15,GUCCUCUUUCACGUGCGCGUGAAAGAGAGAAGUGAUCCAGAGAAACACACGUUGUGGUAUGUUACCUGGUA,0.156
16,GUCCUCUUUCACGUGCGCGUGAAAGAGAGAAGUGAGCCAGAGAAACACACGUCGUGGUAUAUUACCUGGUA,1.08
17,GUCCUCUUUCACGUGCGCGUGAAAGAGAGAAGUGAGCCAGAGAAACACACGUUGUGGUAUAAUACCUGGUA,0.179
18,GUCCUCUUUCACGUGCGCGUGAAAGAGAGAAGUGAUCCAGAAAAACACACGUUGUGGUAUAUUACCUGGUA,0.115
19,GUCCUCUUUCACGUGCGCGUGAAAGAGAGAAGUGAUCCAGAGAUACACACGUUGUGGUAUAUUACCUGGUA,0.285

row,Variant,self-cleavage
1,GUCCUCUUUCACGUGCGCGUGAAAGAGAGAAGUGAUCCAGAGAAACCCACGUUGUGGUAUAUUACCUGGUA,0.146
2,GUCCUCUUUCACGUGCGCGUGAAAGAGAGAAGUGAUCCAGAGAAACACACGUUGUGGUAUAUUACCUGGUU,0.524
3,GUCCUCUUUCACGUGCGCGUGAAAGAGAGAAGUGAUCCAGAGAAACACACGUUGUGGUAUAUUACCUGGUG,0.829
4,GUCCUCUUUCACGUGCGCGUGAAAGAGAGAAGUGAGCCAGAGAAACACACGGUGUGGUAUAUUACCUGGUA,0.882
5,GUCCUCUUUCACGUGCGCGUGAAAGAGAGAAGUGAUCCAGAGAAACACACGUUGUGGUAUAUUACGUGGUA,0.338
6,GUCCUCUUUCACGUGCGCGUGAAAGAGAGAAGUGAUCCAGAGAAACACACGUUGUGGUAUAUUACUUGGUA,0.166
7,GUCCUCUUUCACGUGCGCGUGAAAGAGAGAAGUGAUCCAGAGAAACAUACGUUGUGGUAUAUUACCUGGUA,0.0683
8,GUCCUCUUUCACGUGCGCGUGAAAGAGAGAAGUGAGACAGAGAAACACACGUUGUGGUAUAUUACCUGGUA,0.297
9,GUCCUCUUUCACGUGCGCGUGAAAGAGAGAAGUGAGCCAGAGAAACACACGUUGUGGUAUAUAACCUGGUA,0.23
10,GUCCUCUUUCACGUGCGCGUGAAAGAGAGAAGUGAGCCAGAGAAACACACGUUGUGGUAUAUCACCUGGUA,0.201
11,GUCCUCUUUCACGUGCGCGUGAAAGAGAGAAGUGAUCCAGAGAAACACACCUUGUGGUAUAUUACCUGGUA,0.446
12,GUCCUCUUUCACGUGCGCGUGAAAGAGAGAAGUGAAACAGUGAAACACACGUUGUGGUAUAUUACCUGGUA,0.429
13,GUCCUCUUUCACGUGCGCGUGAAAGAGAGAAGUGAAACAGCGAAACACACGUUGUGGUAUAUUACCUGGUA,0.365
14,GUCCUCUUUCACGUGCGCGUGAAAGAGAGAAGUGAUCCAGAGAAACACACGUUGUGGUAUAUUACCUUGUA,0.118
15,GUCCUCUUUCACGUGCGCGUGAAAGAGAGAAGUGAAACAGAGAAACACACGUUGUGGUAUAUUUCCUGGUA,0.392
16,GUCCUCUUUCACGUGCGCGUGAAAGAGAGAAGUGAAAAAGAGAAACACACGUUGUGGUAUAUUACCUGGUA,0.144
17,GUCCUCUUUCACGUGCGCGUGAAAGAGAGAAGUGAAAUAGAGAAACACACGUUGUGGUAUAUUACCUGGUA,0.0834
18,GUCCUCUUUCACGUGCGCGUGAAAGAGAGAAGUGAGCCAGAGAAACACACGUUGUGGUAUAUUACCGGGUA,0.19
19,GUCCUCUUUCACGUGCGCGUGAAAGAGAGAAGUGAGCCAGAGAAACACACGUUGUGGUAUAUUAUCUGGUA,0.267
